Target: GST-Abp1^SH3 (UniProt Q62418)
Assay: pull-down

- increase of complex formation with 2 µM Ca2+ over Ca2+-free control: 46%
Substance: endogenous Cobl-like from rat brain extracts (natural protein)
